Assays:
[1] = target: G-CSF-R (Homo sapiens (Human)) (UniProt Q99062); experiment: potency ELISA, plate coated with G-CSFR, HRP detection, parallel line analysis; 120 mg/mL formulation, 9 months at 25 C
[2] = target: G-CSF-R (Homo sapiens (Human)) (UniProt Q99062); experiment: potency ELISA, plate coated with G-CSFR, HRP detection, parallel line analysis; 120 mg/mL formulation, 18 months at 25 C
[3] = target: G-CSF-R (Homo sapiens (Human)) (UniProt Q99062); experiment: potency ELISA, plate coated with G-CSFR, HRP detection, parallel line analysis; 120 mg/mL formulation, 3 months at 5 C
[4] = target: G-CSF-R (Homo sapiens (Human)) (UniProt Q99062); experiment: potency ELISA, plate coated with G-CSFR, HRP detection, parallel line analysis; 120 mg/mL formulation, 18 months at 5 C
[5] = target: G-CSF-R (Homo sapiens (Human)) (UniProt Q99062); experiment: potency ELISA, plate coated with G-CSFR, HRP detection, parallel line analysis; 120 mg/mL formulation, 6 months at 5 C
[6] = target: G-CSF-R (Homo sapiens (Human)) (UniProt Q99062); experiment: potency ELISA, plate coated with G-CSFR, HRP detection, parallel line analysis; 120 mg/mL formulation, 0 months at 5 C
[7] = target: G-CSF-R (Homo sapiens (Human)) (UniProt Q99062); experiment: potency ELISA, plate coated with G-CSFR, HRP detection, parallel line analysis; 120 mg/mL formulation, 24 months at 5 C
[8] = target: G-CSF-R (Homo sapiens (Human)) (UniProt Q99062); experiment: potency ELISA, plate coated with G-CSFR, HRP detection, parallel line analysis; 120 mg/mL formulation, 3 months at 25 C
[9] = target: G-CSF-R (Homo sapiens (Human)) (UniProt Q99062); experiment: potency ELISA, plate coated with G-CSFR, HRP detection, parallel line analysis; 120 mg/mL formulation, 0 months at 25 C
[10] = target: G-CSF-R (Homo sapiens (Human)) (UniProt Q99062); experiment: potency ELISA, plate coated with G-CSFR, HRP detection, parallel line analysis; 120 mg/mL formulation, 12 months at 25 C
[11] = target: G-CSF-R (Homo sapiens (Human)) (UniProt Q99062); experiment: potency ELISA, plate coated with G-CSFR, HRP detection, parallel line analysis; 120 mg/mL formulation, 9 months at 5 C
[12] = target: G-CSF-R (Homo sapiens (Human)) (UniProt Q99062); experiment: potency ELISA, plate coated with G-CSFR, HRP detection, parallel line analysis; 120 mg/mL formulation, 12 months at 5 C
[13] = target: G-CSF-R (Homo sapiens (Human)) (UniProt Q99062); experiment: potency ELISA, plate coated with G-CSFR, HRP detection, parallel line analysis; 120 mg/mL formulation, 6 months at 25 C

Substance: CSL324 (antibody)
- potency relative to reference standard [1]: 99%
- potency relative to reference standard [2]: 96%
- potency relative to reference standard [3]: 116%
- potency relative to reference standard [4]: 100%
- potency relative to reference standard [5]: 108%
- potency relative to reference standard [6]: 108%
- potency relative to reference standard [7]: 103%
- potency relative to reference standard [8]: 109%
- potency relative to reference standard [9]: 108%
- potency relative to reference standard [10]: 96%
- potency relative to reference standard [11]: 108%
- potency relative to reference standard [12]: 107%
- potency relative to reference standard [13]: 109%

— US20240002517A1
